# From publication PMC6756063, “TRiC/CCT chaperonins are essential for organ growth by interacting with insulin/TOR signaling in Drosophila” (Oncogene, 2019)
# T1: GST-CCT4 (Drosophila, UniProt Q9VK69 1-533)
# T1 construct: CCT4, Drosophila; source: E. coli BL21 (IPTG-inducible), purified using a standard method
# T1 sequence (looked up): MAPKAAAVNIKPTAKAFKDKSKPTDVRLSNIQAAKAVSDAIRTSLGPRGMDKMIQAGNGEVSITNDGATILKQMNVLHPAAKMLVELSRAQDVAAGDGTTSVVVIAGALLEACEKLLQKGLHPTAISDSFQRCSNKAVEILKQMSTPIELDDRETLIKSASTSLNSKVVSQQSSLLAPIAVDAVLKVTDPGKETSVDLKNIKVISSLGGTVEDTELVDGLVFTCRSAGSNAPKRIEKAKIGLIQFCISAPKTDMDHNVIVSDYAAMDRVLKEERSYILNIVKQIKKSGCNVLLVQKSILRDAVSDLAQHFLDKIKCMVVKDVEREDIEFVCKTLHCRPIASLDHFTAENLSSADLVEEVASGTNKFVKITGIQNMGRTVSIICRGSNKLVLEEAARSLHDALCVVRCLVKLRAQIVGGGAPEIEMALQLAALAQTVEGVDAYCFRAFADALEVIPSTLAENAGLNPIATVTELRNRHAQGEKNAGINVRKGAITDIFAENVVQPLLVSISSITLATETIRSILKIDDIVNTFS
# Target: T1, GST-CCT4
# Experiment: pull-down; MBP-pulldown of MBP-tagged bait with GST-CCT4; pulldown buffer 20 mM Tris pH 7.5, 150 mM NaCl, 0.5 mM EDTA, 10% glycerol, 0.1% Triton X-100, 1 mM DTT; blots with anti-MBP and anti-GST
# Conditions: both partners purified
binder,measurement,value
"MBP-Rheb (natural protein, Drosophila, UniProt Q9VND8 1-182, looked up, also called full-length Rheb; source: E. coli BL21 (IPTG-inducible), purified using a standard method) MPTKERHIAMMGYRSVGKSSLCIQFVEGQFVDSYDPTIENTFTKIERVKSQDYIVKLIDTAGQDEYSIFPVQYSMDYHGYVLVYSITSQKSFEVVKIIYEKLLDVMGKKYVPVVLVGNKIDLHQERTVSTEEGKKLAESWRAAFLETSAKQNESVGDIFHQLLILIENENGNPQEKSGCLVS",binding result,binds
